Test results from patent US20200247894A1 (Regeneron, published 2020).

T1: Macaca fascicularis IL2Rγ extracellular domain expressed with a C-terminal myc-myc-hexahistidine tag (Macaca fascicularis)
T1 construct: also called mfIL-2Rg-MMH; mfIL-2RG-MMH
T1 chain: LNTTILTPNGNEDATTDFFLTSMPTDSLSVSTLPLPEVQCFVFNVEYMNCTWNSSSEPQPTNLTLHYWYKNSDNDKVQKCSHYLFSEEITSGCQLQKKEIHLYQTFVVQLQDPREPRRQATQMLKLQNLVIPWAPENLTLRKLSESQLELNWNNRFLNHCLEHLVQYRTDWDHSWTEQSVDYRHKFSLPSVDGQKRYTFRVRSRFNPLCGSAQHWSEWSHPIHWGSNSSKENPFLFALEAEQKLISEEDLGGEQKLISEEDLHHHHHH

T2: Human IL2Rγ extracellular domain expressed with a C-terminal myc-myc-hexahistidine tag (human)
T2 construct: also called hIL-2Rg-MMH; hIL-2RG-MMH
T2 chain: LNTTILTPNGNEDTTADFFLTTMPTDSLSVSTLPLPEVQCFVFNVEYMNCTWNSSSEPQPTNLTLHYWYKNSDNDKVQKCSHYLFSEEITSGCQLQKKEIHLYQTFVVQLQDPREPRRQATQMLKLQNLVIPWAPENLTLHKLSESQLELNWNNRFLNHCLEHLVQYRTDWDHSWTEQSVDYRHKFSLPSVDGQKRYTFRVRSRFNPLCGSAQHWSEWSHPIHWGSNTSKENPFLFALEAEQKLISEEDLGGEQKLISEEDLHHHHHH


Experiments:
[1] = molecular target: T1, Macaca fascicularis IL2Rγ extracellular …; experiment: SPR Biacore 4000, mAb captured by anti-hFc, HBS-ET, 25C
Method: (§1) Equilibrium dissociation constants (KD values) for IL-2Rγ binding to purified anti-IL2Rγ monoclonal antibodies were determined using a Biacore 4000 instrument equipped with a real-time surface plasmon resonance biosensor. All binding studies were performed in 10 mM HEPES, 150 mM NaCl, 3 mM EDTA, and 0.05% v/v Surfactant Tween-20, pH 7.4 (HBS-ET) running buffer at 25° C. and 37° C. The Biacore sensor surface was first derivatized by amine coupling with a monoclonal mouse anti-human Fc antibody (GE, # BR-1008-39) to capture anti-IL2Rγ monoclonal antibodies.
(§2) The dissociation of monoclonal antibody bound IL2Rγ reagents were monitored for 8-10 minutes in HBS-ET running buffer. Kinetic association (kₐ) and dissociation (kd) rate constants were determined by fitting the real-time sensorgrams to a 1:1 binding model using Scrubber 2.0c curve fitting software. Binding dissociation equilibrium constants (KD) and dissociative half-lives (t_{1/2}) were calculated from the kinetic rate constants as: […]

[2] = molecular target: T2, Human IL2Rγ extracellular domain …; experiment: as above
Method: as §1, §2

[3] = molecular target: T1, Macaca fascicularis IL2Rγ extracellular …; experiment: SPR Biacore 4000, mAb captured by anti-hFc, 37C, dissociation in PBS-T pH 7.4
Method: (§3) The dissociation rate constant (kd) for binding of IL-2Rγ reagents to purified anti-IL2Rγ monoclonal antibodies was determined using a real-time surface plasmon resonance based Biacore 4000 biosensor platform. […] The CM5 Biacore sensor surface derivatized by amine coupling with monoclonal mouse anti-human Fc antibody (GE, Catalog # BR-1008-39) was used to capture anti-IL2Rγ monoclonal antibodies expressed with human IgG4 Fc. All the IL2Rγ reagents were expressed with a C-terminal myc-myc-hexahistidine tag (subsequently referred to with a -MMH suffix). […] The dissociation of bound IL-2Rg-MMH was performed in PBS-T-pH7.4 or PBS-T-pH6.0 running buffers for 6 minutes.
(§4) Dissociation rate constants (kd) in two running buffers were determined by fitting the real-time binding sensorgrams to a 1:1 binding model using Scrubber 2.0c curve-fitting software. Values of dissociation rate for […] mAb binding to hIL-2RG-MMH and mfIL-2RG-MMH at 25° C. and 37° C. in PBS-T-pH7.4 and PBS-T-pH6.0 is shown in Table 2-1 through Table 2-8.

[4] = molecular target: T1, Macaca fascicularis IL2Rγ extracellular …; experiment: SPR Biacore 4000, mAb captured by anti-hFc, 37C, dissociation in PBS-T pH 6.0
Method: as §3, §4

[5] = molecular target: T2, Human IL2Rγ extracellular domain …; experiment: SPR Biacore 4000, mAb captured by anti-hFc, HBS-ET, 37C
Method: as §1, §2

Binder | 100 nM Ag Bound [1] | Kd [1] | koff [1] | kon [1] | t1/2 [1] | 100 nM Ag Bound [2] | Kd [2] | koff [2] | kon [2] | t1/2 [2] | 100 nM Ag Bound (RU) [3] | koff [3] | t1/2 [3] | 100 nM Ag Bound (RU) [4] | koff [4] | t1/2 [4] | 100 nM Ag Bound [5] | Kd [5] | koff [5] | kon [5] | further results
H4H12922P2 (antibody, human IgG4 S228P, kappa, V domains shown, anti-IL2Rγ monoclonal antibody expressed with human IgG4 Fc; also called REGN7256) VH: QVQLVESGGGVVKPGGSLRLSCAASGFTFSNSGIHWVRQAPGKGLEWVALISYAGSNKYYADSVKGRFTISRDNSKNTLSLQMNSLRAEDTAVYYCAKEVWTGTYDSFDMWGRGTMVTVSS VL: not shown | 76 RU | 1.64 nM | 0.000386 s⁻¹ | 235000 M⁻¹ s⁻¹ | 30 min | 79 RU | 1.3 nM | 0.000386 s⁻¹ | 297000 M⁻¹ s⁻¹ | 30 min | 185 RU | 0.000693 s⁻¹ | 17 min | 146 RU | 0.00344 s⁻¹ | 3.4 min | 44 RU | 2.58 nM | 0.00105 s⁻¹ | 407000 M⁻¹ s⁻¹ | t1/2 [5]: 11 min
H4H12913P2 (antibody, human IgG4 S228P, kappa, V domains shown, anti-IL2Rγ monoclonal antibody expressed with human IgG4 Fc) VH: EVQLVESGGGVVRPGGSLRLSCAASGFTFDDYGMSWVRQAPGKGLEWISSINRNGGSADYADSVKGRFTISRDNAKNSLFLQMSSLRAEDTALYHCASGEFRFDYWGQGTLVTVSS VL: not shown | 34 RU | 14.1 nM | 0.000633 s⁻¹ | 44900 M⁻¹ s⁻¹ | 18 min | 42 RU | 11.2 nM | 0.000691 s⁻¹ | 62000 M⁻¹ s⁻¹ | 17 min | 76 RU | 0.000894 s⁻¹ | 13 min | 54 RU | 0.00296 s⁻¹ | 4 min | 24 RU | 33.4 nM | 0.00348 s⁻¹ | 104000 M⁻¹ s⁻¹ | t1/2 [5]: 3.3 min
H4H12863P (antibody, human IgG4 S228P, kappa, V domains shown, anti-IL2Rγ monoclonal antibody expressed with human IgG4 Fc) VH: QVQLVESGGGVVQPGRSLRLSCTASGFTFRSYDMYWVRQAPGKGLEWVSVITYDGNNKYYADSVKGRFTISRDNSKNTLFLQMSSLRPEDTAVYYCAKRGLIWVGESFDYWGQGTLVTVSS VL: DIQMTQSPSTLSASVGDRVTITCRASQSINSWLAWYQQKPGKAPNLLIYKASSLESGVPSRFSGSGSGTEFTLTISSLQPDDFATYYCQQYKSYSWTFGQGTKVEIKR | 81 RU | 1.91 nM | 0.00036 s⁻¹ | 189000 M⁻¹ s⁻¹ | 32 min | 91 RU | 1.7 nM | 0.000384 s⁻¹ | 226000 M⁻¹ s⁻¹ | 30 min | 177 RU | 0.000606 s⁻¹ | 19 min | 141 RU | 0.00208 s⁻¹ | 6 min | 77 RU | 4.11 nM | 0.00151 s⁻¹ | 367000 M⁻¹ s⁻¹ | t1/2 [5]: 8 min
H4H12858P (antibody, human IgG4 S228P, kappa, V domains shown, anti-IL2Rγ monoclonal antibody expressed with human IgG4 Fc; also called REGN9433) VH: EVQLVESGGDLVQPGGSLRLSCTASGFIFRNYAMNWVRQAPGKGLEWLSGILGSNDNTYYVDSVKGRFTISRDNSRNTLYLQMNSLRAEDSAVYYCAKGDAGGFDYWGQGTLVTVSS VL: DVVMTQSPLSLPVILGQPASISCRSSQSLVSSDGNTYLNWFQQRPGQSPRRLIYKVSNRDSGVPDRFSGSGSGTDFTLKISRVEAEDVGAYYCMQGSYWPPTFGQGTKLEIKR | 58 RU | 2.36 nM | 0.000269 s⁻¹ | 114000 M⁻¹ s⁻¹ | 43 min | 67 RU | 1.23 nM | 0.000316 s⁻¹ | 257000 M⁻¹ s⁻¹ | 37 min | 143 RU | 0.000542 s⁻¹ | 21 min | 134 RU | 0.00155 s⁻¹ | 7 min | 57 RU | 4.52 nM | 0.00174 s⁻¹ | 386000 M⁻¹ s⁻¹ | t1/2 [5]: 7 min

More lines, in order of falling Kd [1], values ahead:

100 nM Ag Bound [1] | Kd [1] | koff [1] | kon [1] | t1/2 [1] | 100 nM Ag Bound [2] | Kd [2] | koff [2] | kon [2] | t1/2 [2] | 100 nM Ag Bound (RU) [3] | koff [3] | t1/2 [3] | 100 nM Ag Bound (RU) [4] | koff [4] | t1/2 [4] | 100 nM Ag Bound [5] | Kd [5] | koff [5] | kon [5] | Binder | further results
17 RU | 126 nM | 0.00507 s⁻¹ | 40300 M⁻¹ s⁻¹ | 2.3 min | 27 RU | 87.6 nM | 0.00321 s⁻¹ | 36600 M⁻¹ s⁻¹ | 4 min | 47 RU | 0.00397 s⁻¹ | 2.9 min | 31 RU | 0.0123 s⁻¹ | 0.9 min | 18 RU | 187 nM | 0.0129 s⁻¹ | 69000 M⁻¹ s⁻¹ | H4H12859P (antibody, human IgG4 S228P, kappa, V domains shown, anti-IL2Rγ monoclonal antibody expressed with human IgG4 Fc) VH: QVQLVQSGAEVKKPGASVRVSCKASGYTFTDYDIHWVRQAPGHGLEWMGWINPNSGGTNYAQKFQGRVTMTRDTSISTVYMDLSRLRSDDTAVYYCARADYSSSYYYYGMDVWGQGTTVTVSS VL: not shown | t1/2 [5]: 0.9 min
82 RU | 6.98 nM | 0.00121 s⁻¹ | 174000 M⁻¹ s⁻¹ | 10 min | 84 RU | 6.96 nM | 0.00139 s⁻¹ | 199000 M⁻¹ s⁻¹ | 8 min | 171 RU | 0.00147 s⁻¹ | 8 min | 135 RU | 0.00335 s⁻¹ | 3.4 min | 62 RU | 13.1 nM | 0.00336 s⁻¹ | 257000 M⁻¹ s⁻¹ | H4H12884P (antibody, human IgG4 S228P, kappa, V domains shown, anti-IL2Rγ monoclonal antibody expressed with human IgG4 Fc) VH: QVQLQESGPGLVKPSQTLSLTCTVSGGSISSGGYYWSWIRQHPGKGLEWIGFIYYSGKTYYNPSLKSRLTISVDTSKSQFSLKLRSVTAADTAVYYCARLGYTNSAGWFDPWGQGTLVTVSS VL: DIQMTQSPSSLSASVGDRVTITCRASQSISSYLNWYQQKPGKAPNLLIYAASSLQSGVPSRFSGSGSGTDFTLTISSLQPEDLATYYCQQSYTTPFTFGPGTKVDIKR | t1/2 [5]: 3.4 min
72 RU | 5.19 nM | 0.000905 s⁻¹ | 174000 M⁻¹ s⁻¹ | 13 min | 77 RU | 5.03 nM | 0.001 s⁻¹ | 199000 M⁻¹ s⁻¹ | 12 min | 143 RU | 0.00102 s⁻¹ | 11 min | 141 RU | 0.00227 s⁻¹ | 5 min | 61 RU | 10.6 nM | 0.00266 s⁻¹ | 250000 M⁻¹ s⁻¹ | H4H12871P (antibody, human IgG4 S228P, kappa, V domains shown, anti-IL2Rγ monoclonal antibody expressed with human IgG4 Fc; also called REGN9434) VH: QVQLQESGPGLVKPSQTLSLTCTVSGGSITSGGYYWSWIRQYPGQGLEWIGYIYYSGKTYYNPSFTSRITISVDTSKKQFSLKMSSVTAADTAVYYCARAGFTSSNGWFDPWGQGTLVTVSS VL: DIQMTQSPSSLSASVGDRVTITCRASQNIRSYLNWYQQKPGKAPKLLIYSASSLQSGVPSRFSGSGSGTDFTLTISSLQPEDFPTYYCQQTYSSPWTFGPGTKVEIKR | t1/2 [5]: 4 min
50 RU | 4.28 nM | 0.000306 s⁻¹ | 71500 M⁻¹ s⁻¹ | 38 min | 57 RU | 3.57 nM | 0.000305 s⁻¹ | 85200 M⁻¹ s⁻¹ | 38 min | 92 RU | 0.000541 s⁻¹ | 21 min | 82 RU | 0.00255 s⁻¹ | 5 min | 52 RU | 10.4 nM | 0.00125 s⁻¹ | 120000 M⁻¹ s⁻¹ | H4H12874P (antibody, human IgG4 S228P, kappa, V domains shown, anti-IL2Rγ monoclonal antibody expressed with human IgG4 Fc) VH: QVQLVESGGGVVQPGRSLRLSCAASGFNFRNFGMHWVRQAPGKGLEWVAGILYDGSSKYYADSVKDRFTISRDNSKNTLFLQMNSLRAEDTAMYYCAKEEDTAMVPFDSWGPGTLVTVSS VL: DIQLTQSPSFLSASVGDRVTITCWASQGISSYLAWYQQKPGKAPTLLIYAASTLQSGVPSRFSGSGSGTEFTLTISSLQPEDFASYYCQQLKSYPLTFGGGTKVEIKR | t1/2 [5]: 9 min
